# Data from paper PMC4335501 (2015).
# B1: Recombinant human CAR (CXADR Fc chimera; full length extracellular D1D2 domain) (Fc fusion)
# chain: LSITTPEEMIEKAKGETAYLPCKFTLSPEDQGPLDIEWLISPADNQKVDQVIILYSGDKIYDDYYPDLKGRVHFTSNDLKSGDASINVTNLQLSDIGTYQCKVKKAPGVANKKIHLVVLVKPSGARCYVDGSEEIGSDFKIKCEPKEGSLPLQYEWQKLSDSQKMPTSWLAEMTSSVISVKNASSEYSGTYSCTVRNRVGSDQCLLRLNVVPPSNKAG
# Target: HAdV-52 long fiber knob (human adenovirus type 52 (HAdV-52))
# Assay: SPR
binder,measurement,value
B1,koff,0.00221 s⁻¹
